Reference: US20240150490A1 (MABPRO A S, published 2024)

Molecular target: recombinant human CA IX (human, UniProt Q16790 38-414)
Assay: SPR (Biacore 2000), antibody captured on CM5 chip, rh CA IX in flow, 25 C
Description: In order to determinate the antigen-binding affinity of humanized variants, measurements of affinity constant (KD) for antibodies binding to CA IX were performed by SPR using a Biacore 2000 (T200 in case of CA9hu-2) instrument (GE Healthcare, Piscataway, NJ USA). Each humanized antibody variant was captured on the CM5 sensor chip and recombinant human CA IX (rh CA IX; 42 kDa; R&D Systems, Inc., Minneapolis MN, USA) protein as an antigen was added to the buffer flowing over the chip. The setting details of quantitative interaction analysis between humanized antibodies and rh CA IX were as follows: flow rate 30 μl/min; analysis temperature 25° C.; analysis buffer (10mM HEPES pH 7.4, 150 mM NaCl, […], 0.05% Tween 20). Results from SPR analysis are expressed as the equilibrium dissociation constant (KD) (Table 7).

Row | Kd [nM] | Binder
1 | 56 | CA9hu-1_HC5LC3 (antibody, V domains shown, Humanized from murine VII/20; also called HC5LC3 (CA9hu-1)) VH: EVQLVESGGGLVQPGGSLRLSCAASGFTFTDYYMHWVRQAPGKGLEWVGFIRNKASGYTPQYSASVKGRFTISRDDSKNSLYLQMNSLKTEDTAVYYCVRGGHAGSNYWYFDVWGQGTMVTVSS VL: DIQMTQSPSSLSASVGDRVTITCHVSQNINVWLSWYQQKPGEAPKLLIYQASNLHTGVPSRFSGSGSGTDFTLTISSLQPEDFATYYCQQGQSYPFTFGQGTKLEIK
2 | 51 | CA9hu-1_HC2LC3 (antibody, V domains shown, Humanized from murine VII/20; also called HC2LC3 (CA9hu-1)) VH: EVRLVESGGGLVQPGGSLRLSCAASGFTFTDYYMHWVRQAPGKGLEWLGFIRNKASGYTPQYSASVKGRFTISRDDSTNSLYLQMNSLKTEDTAIYYCVRGGHAGSNYWYFDVWGQGTLVTVSS VL: DIQMTQSPSSLSASVGDRVTITCHVSQNINVWLSWYQQKPGEAPKLLIYQASNLHTGVPSRFSGSGSGTDFTLTISSLQPEDFATYYCQQGQSYPFTFGQGTKLEIK
3 | 96 | CA9hu-1_HC1LC5 (antibody, V domains shown, Humanized from murine VII/20; also called HC1LC5 (CA9hu-1)) VH: EVQLVESGGGLVQPGGSLRLSCAASGFTFTDYYMHWVRQAPGKGLEWVAFIRNKASGYTPQYSASVKGRFTISRDDSKNSLYLQMNSLKIEDTAVYYCVRGGHAGSNYWYFDVWGQGTTVTVSS VL: DIQMTQSPSSLSASVGDRVTITCHVSQNINVWLSWYQQKPGKAPKLLIYQASNLHTGVPSRFSGSGSGTDFTFTISSLQPEDIATYYCQQGQSYPFTFGQGTKLEIK
4 | 100 | CA9hu-1_HC1LC4 (antibody, V domains shown, Humanized from murine VII/20; also called HC1LC4 (CA9hu-1)) VH: EVQLVESGGGLVQPGGSLRLSCAASGFTFTDYYMHWVRQAPGKGLEWVAFIRNKASGYTPQYSASVKGRFTISRDDSKNSLYLQMNSLKIEDTAVYYCVRGGHAGSNYWYFDVWGQGTTVTVSS VL: DIQMTQSPSSLSASVGDRVTINCHVSQNINVWLSWYQQKPGEAPKLLIYQASNLHTGVPSRFSGSGSGTGFTLTIRSLQPEDYATYYCQQGQSYPFTFGQGTKLEIK
5 | 96 | CA9hu-1_HC1LC3 (antibody, V domains shown, Humanized from murine VII/20; also called HC1LC3 (CA9hu-1)) VH: EVQLVESGGGLVQPGGSLRLSCAASGFTFTDYYMHWVRQAPGKGLEWVAFIRNKASGYTPQYSASVKGRFTISRDDSKNSLYLQMNSLKIEDTAVYYCVRGGHAGSNYWYFDVWGQGTTVTVSS VL: DIQMTQSPSSLSASVGDRVTITCHVSQNINVWLSWYQQKPGEAPKLLIYQASNLHTGVPSRFSGSGSGTDFTLTISSLQPEDFATYYCQQGQSYPFTFGQGTKLEIK
6 | 97 | CA9hu-1_HC1LC1 (antibody, V domains shown, Humanized from murine VII/20; also called HC1LC1 (CA9hu-1)) VH: EVQLVESGGGLVQPGGSLRLSCAASGFTFTDYYMHWVRQAPGKGLEWVAFIRNKASGYTPQYSASVKGRFTISRDDSKNSLYLQMNSLKIEDTAVYYCVRGGHAGSNYWYFDVWGQGTTVTVSS VL: DIQMTQSPSSLSASVGDRVTITCHVSQNINVWLSWYQQKPGKAPNLLIYQASNLHTGVPSRFSGSGSGTHFTLTISSLQPEDIATYYCQQGQSYPFTFGGGTKVEIK
7 | 82 | CA9hu-1_HC3LC3 (antibody, V domains shown, Humanized from murine VII/20; also called HC3LC3 (CA9hu-1)) VH: QVQLVQSGGGLVQPGRSLRLSCTASGFTFTDYYMHWVRQAPGKGLEWVGFIRNKASGYTPQYSASVKGRFTISRDDSKTIAYLQMNSLKTEDTAVYYCVRGGHAGSNYWYFDVWGQGTLVTVSS VL: DIQMTQSPSSLSASVGDRVTITCHVSQNINVWLSWYQQKPGEAPKLLIYQASNLHTGVPSRFSGSGSGTDFTLTISSLQPEDFATYYCQQGQSYPFTFGQGTKLEIK
8 | 12.3 | CA9hu-1_HC4LC5 (antibody, V domains shown, Humanized from murine VII/20; also called HC4LC5 (CA9hu-1)) VH: EVQLVESGGGLVQPGGSLRLSCAASGFTFTDYYMHWVRQAPGRGLEWVAFIRNKASGYTPQYSASVKGRFTISRDNAENSLYLQMNSLRAEDTAVYYCVRGGHAGSNYWYFDVWGKGTTVTVSS VL: DIQMTQSPSSLSASVGDRVTITCHVSQNINVWLSWYQQKPGKAPKLLIYQASNLHTGVPSRFSGSGSGTDFTFTISSLQPEDIATYYCQQGQSYPFTFGQGTKLEIK
9 | 60 | CA9hu-1_HC2LC4 (antibody, V domains shown, Humanized from murine VII/20; also called HC2LC4 (CA9hu-1)) VH: EVRLVESGGGLVQPGGSLRLSCAASGFTFTDYYMHWVRQAPGKGLEWLGFIRNKASGYTPQYSASVKGRFTISRDDSTNSLYLQMNSLKTEDTAIYYCVRGGHAGSNYWYFDVWGQGTLVTVSS VL: DIQMTQSPSSLSASVGDRVTINCHVSQNINVWLSWYQQKPGEAPKLLIYQASNLHTGVPSRFSGSGSGTGFTLTIRSLQPEDYATYYCQQGQSYPFTFGQGTKLEIK
10 | 10.7 | CA9hu-1_HC4LC3 (antibody, V domains shown, Humanized from murine VII/20; also called HC4LC3 (CA9hu-1)) VH: EVQLVESGGGLVQPGGSLRLSCAASGFTFTDYYMHWVRQAPGRGLEWVAFIRNKASGYTPQYSASVKGRFTISRDNAENSLYLQMNSLRAEDTAVYYCVRGGHAGSNYWYFDVWGKGTTVTVSS VL: DIQMTQSPSSLSASVGDRVTITCHVSQNINVWLSWYQQKPGEAPKLLIYQASNLHTGVPSRFSGSGSGTDFTLTISSLQPEDFATYYCQQGQSYPFTFGQGTKLEIK
11 | 60 | CA9hu-1_HC2LC1 (antibody, V domains shown, Humanized from murine VII/20; also called HC2LC1 (CA9hu-1)) VH: EVRLVESGGGLVQPGGSLRLSCAASGFTFTDYYMHWVRQAPGKGLEWLGFIRNKASGYTPQYSASVKGRFTISRDDSTNSLYLQMNSLKTEDTAIYYCVRGGHAGSNYWYFDVWGQGTLVTVSS VL: DIQMTQSPSSLSASVGDRVTITCHVSQNINVWLSWYQQKPGKAPNLLIYQASNLHTGVPSRFSGSGSGTHFTLTISSLQPEDIATYYCQQGQSYPFTFGGGTKVEIK
12 | 97 | CA9hu-1_HC3LC4 (antibody, V domains shown, Humanized from murine VII/20; also called HC3LC4 (CA9hu-1)) VH: QVQLVQSGGGLVQPGRSLRLSCTASGFTFTDYYMHWVRQAPGKGLEWVGFIRNKASGYTPQYSASVKGRFTISRDDSKTIAYLQMNSLKTEDTAVYYCVRGGHAGSNYWYFDVWGQGTLVTVSS VL: DIQMTQSPSSLSASVGDRVTINCHVSQNINVWLSWYQQKPGEAPKLLIYQASNLHTGVPSRFSGSGSGTGFTLTIRSLQPEDYATYYCQQGQSYPFTFGQGTKLEIK
13 | 53 | CA9hu-1_HC2LC2 (antibody, V domains shown, Humanized from murine VII/20; also called HC2LC2 (CA9hu-1)) VH: EVRLVESGGGLVQPGGSLRLSCAASGFTFTDYYMHWVRQAPGKGLEWLGFIRNKASGYTPQYSASVKGRFTISRDDSTNSLYLQMNSLKTEDTAIYYCVRGGHAGSNYWYFDVWGQGTLVTVSS VL: DIQMTQSPSTLSASVGDRVTITCHVSQNINVWLSWYQQKPGNAPKLLIYQASNLHTGVPSRFSGSGSGTEFTLTIGSLQPDDFVTYYCQQGQSYPFTFGQGTKVEIK
14 | 83 | CA9hu-1_HC3LC5 (antibody, V domains shown, Humanized from murine VII/20; also called HC3LC5 (CA9hu-1)) VH: QVQLVQSGGGLVQPGRSLRLSCTASGFTFTDYYMHWVRQAPGKGLEWVGFIRNKASGYTPQYSASVKGRFTISRDDSKTIAYLQMNSLKTEDTAVYYCVRGGHAGSNYWYFDVWGQGTLVTVSS VL: DIQMTQSPSSLSASVGDRVTITCHVSQNINVWLSWYQQKPGKAPKLLIYQASNLHTGVPSRFSGSGSGTDFTFTISSLQPEDIATYYCQQGQSYPFTFGQGTKLEIK
15 | 80 | CA9hu-1_HC1LC2 (antibody, V domains shown, Humanized from murine VII/20; also called HC1LC2 (CA9hu-1)) VH: EVQLVESGGGLVQPGGSLRLSCAASGFTFTDYYMHWVRQAPGKGLEWVAFIRNKASGYTPQYSASVKGRFTISRDDSKNSLYLQMNSLKIEDTAVYYCVRGGHAGSNYWYFDVWGQGTTVTVSS VL: DIQMTQSPSTLSASVGDRVTITCHVSQNINVWLSWYQQKPGNAPKLLIYQASNLHTGVPSRFSGSGSGTEFTLTIGSLQPDDFVTYYCQQGQSYPFTFGQGTKVEIK
16 | 56 | CA9hu-1_HC2LC5 (antibody, V domains shown, Humanized from murine VII/20; also called HC2LC5 (CA9hu-1)) VH: EVRLVESGGGLVQPGGSLRLSCAASGFTFTDYYMHWVRQAPGKGLEWLGFIRNKASGYTPQYSASVKGRFTISRDDSTNSLYLQMNSLKTEDTAIYYCVRGGHAGSNYWYFDVWGQGTLVTVSS VL: DIQMTQSPSSLSASVGDRVTITCHVSQNINVWLSWYQQKPGKAPKLLIYQASNLHTGVPSRFSGSGSGTDFTFTISSLQPEDIATYYCQQGQSYPFTFGQGTKLEIK
